According to patent US20190161753:

Target: T1, The other proteins of the P. furiosus Cmr effector complex (Cmr1, Cmr3, Cmr4, Cmr5, Cmr6, with crRNA)
T1 chain 1: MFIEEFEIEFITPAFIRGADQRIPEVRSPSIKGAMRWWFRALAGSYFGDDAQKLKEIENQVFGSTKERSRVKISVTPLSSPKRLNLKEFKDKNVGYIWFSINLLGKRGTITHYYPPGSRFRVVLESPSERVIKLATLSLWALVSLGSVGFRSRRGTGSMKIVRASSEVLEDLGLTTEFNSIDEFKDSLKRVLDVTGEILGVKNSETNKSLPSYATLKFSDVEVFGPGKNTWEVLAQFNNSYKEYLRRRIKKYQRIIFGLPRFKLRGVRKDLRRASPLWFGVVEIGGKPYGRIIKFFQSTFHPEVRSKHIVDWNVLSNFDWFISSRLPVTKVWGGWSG
T1 chain 2: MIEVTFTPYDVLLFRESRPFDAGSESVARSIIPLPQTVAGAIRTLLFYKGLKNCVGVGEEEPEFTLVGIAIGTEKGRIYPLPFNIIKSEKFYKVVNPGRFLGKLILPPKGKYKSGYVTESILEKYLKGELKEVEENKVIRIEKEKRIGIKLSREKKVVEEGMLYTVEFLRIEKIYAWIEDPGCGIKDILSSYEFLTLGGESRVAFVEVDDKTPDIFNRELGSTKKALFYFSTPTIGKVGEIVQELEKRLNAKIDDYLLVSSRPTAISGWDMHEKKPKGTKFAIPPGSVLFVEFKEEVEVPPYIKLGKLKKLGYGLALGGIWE
T1 chain 3: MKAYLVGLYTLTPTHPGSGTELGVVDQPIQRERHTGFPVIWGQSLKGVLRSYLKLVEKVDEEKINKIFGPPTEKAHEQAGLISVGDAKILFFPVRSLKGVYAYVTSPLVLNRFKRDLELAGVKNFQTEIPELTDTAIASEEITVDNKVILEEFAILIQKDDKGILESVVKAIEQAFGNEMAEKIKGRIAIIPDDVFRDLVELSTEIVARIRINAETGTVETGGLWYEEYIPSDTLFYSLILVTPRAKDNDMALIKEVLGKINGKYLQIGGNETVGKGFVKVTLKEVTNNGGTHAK
T1 chain 4: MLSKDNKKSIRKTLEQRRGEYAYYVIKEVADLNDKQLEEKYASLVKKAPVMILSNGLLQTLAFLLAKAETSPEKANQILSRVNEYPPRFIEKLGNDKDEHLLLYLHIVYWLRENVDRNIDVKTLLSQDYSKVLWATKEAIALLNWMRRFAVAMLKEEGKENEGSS
T1 chain 5: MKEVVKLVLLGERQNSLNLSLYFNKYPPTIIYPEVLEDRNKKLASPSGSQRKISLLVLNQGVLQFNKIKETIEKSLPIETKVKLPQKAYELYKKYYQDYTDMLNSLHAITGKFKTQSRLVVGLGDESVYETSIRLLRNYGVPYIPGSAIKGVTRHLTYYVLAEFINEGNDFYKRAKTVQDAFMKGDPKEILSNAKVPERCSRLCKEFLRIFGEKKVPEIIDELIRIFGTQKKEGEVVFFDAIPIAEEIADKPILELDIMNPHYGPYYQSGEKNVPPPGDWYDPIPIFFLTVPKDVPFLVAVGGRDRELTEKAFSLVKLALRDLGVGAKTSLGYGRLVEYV

B1: Pyrococcus furiosus Cmr2 protein, wild type (PF1129) (protein)
chain: MVNIKEKLFVYLHDPPDKALKIENHEERSKKILSSGNIQYSRTDKVKQADALSSKTQRFIIRTKENKEPVIDFLGRSSGKYFHVGYPVFIHPISTEIKRYETLEKYIDLGRSNRGERFVNEFLERVSKLEGDVLKEVFEDASNKFKGEESKQWAYIWQFYPVKLKEGVKEFAKSELKLKEEEAEKFAEEFVNLPADTRFPDHAIWTHLDLTSALSVKDPTLLRIKIVPVQPFIANSRKQLDLWASSHLLSMLMYKALEVIVDKFGPEHVIYPSLRDQPFFLKFYLGENIGDEILVANLPNKALAIVSGKEAEKIEEEIKKRIRDFLLQLYREAVDWAVENGVVKVDRSEKDSMLKEAYLKIVREYFTVSITWVSLSEKEDIYQVTENAGLSDEDVKKWLKFAEKKENSRVLERIAIYPLLVKILDSLGERKVTEERFEKSEQLKGWKCHVCGENLAIFGDMYDHDNLKSLWLDEEPLCPMCLIKRYYPVWIRSKTGQKIRFESVVDVALLYKNWRKIFDEKYGKDLVSKAREVSEDFVKDNMLVDSDLYYSSTWESGLSKKLKNKKEIDEEKVKEVVDFLNAAYKEIGNPPKYYAILVMDGDDMGKVISGEVLGEISTRIHPNIRDYVEIPEAKYYSTPQVHVAISQALANFSIREVRSVVKDEGLLIYAGGDDVLAILPVDKALEVAYKIRKEFGKSFENGSLLPGWKLSAGILIVHYKHPLYDALEKARDLLNNKAKNVPGKDTLAIGLLKRSGSYYISLVGWELIRVFYNSELRKKLLEEKGGVGKRFIYHVLREVDTWPKVGIDEMLKFEVIRHIRGRNKEETKELREKIYGEIKDLLEHVRGNNEVEKVRGLFTFLKIITDAEVFP
With B1 the “ssDNA nuclease activity (cleavage of 5' radiolabeled ssDNA oligo, denaturing PAGE)” value was “The reconstituted Cmr complex (including Cmr1-6 and crRNA) displays very little ssDNA nuclease activity in comparison with approximately equimolar concentrations of Cmr2 alone”.
